Reference: the supplement of paper PMC9112550, “Optimization of the antimicrobial peptide Bac7 by deep mutational scanning” (BMC Biology, 2022)

Test system: Escherichia coli TOP10
Experiment: shrunken log2 fold change of peptide-encoding DNA abundance (4.5 h post-induction vs induction); higher = less antimicrobial activity (less host growth inhibition)
Conditions: time post-induction: 4.5 h; library: site-saturation at positions 5, 18, 19, 20
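Also: peptides expressed intracellularly from a pBAD plasmid library in pooled LB shake-flask culture, induced with 0.3% L-arabinose, DNA abundance read by NGS, three biological replicates, DESeq2 with apeglm shrinkage.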

Sequence	shrunken log2 fold change
RRIRPRPPRLPRPRPRPDRVPRP	0.187
RRIRRRPPRLPRPRPRPGYWPRP	0.535
RRIRNRPPRLPRPRPRPFEAPRP	0.0104
RRIRIRPPRLPRPRPRPTCLPRP	-0.0168
RRIRIRPPRLPRPRPRPPRCPRP	0.0758
RRIRARPPRLPRPRPRPCHDPRP	-0.00479
RRIRPRPPRLPRPRPRPVTKPRP	0.138
RRIRARPPRLPRPRPRPGTPPRP	0.642
RRIRWRPPRLPRPRPRPQYKPRP	-0.696
RRIRKRPPRLPRPRPRPLTIPRP	0.146
RRIRKRPPRLPRPRPRPWPGPRP	0.342
RRIRQRPPRLPRPRPRPVMQPRP	0.0499
RRIRFRPPRLPRPRPRPLFEPRP	-0.0359
RRIRHRPPRLPRPRPRPVMMPRP	-0.123
RRIRGRPPRLPRPRPRPRIVPRP	0.824
RRIRRRPPRLPRPRPRPLCTPRP	0.354
RRIRSRPPRLPRPRPRPWRWPRP	0.124
RRIRQRPPRLPRPRPRPDMIPRP	-0.303
RRIRERPPRLPRPRPRPYDVPRP	-0.000921
RRIRHRPPRLPRPRPRPLIMPRP	-0.561
RRIRARPPRLPRPRPRPYFHPRP	-0.444
RRIRFRPPRLPRPRPRPRQCPRP	-0.123
RRIRSRPPRLPRPRPRPFSNPRP	-0.218

Sequence	shrunken log2 fold change
RRIRARPPRLPRPRPRPAGRPRP	0.723
RRIRHRPPRLPRPRPRPLQSPRP	-0.0699
RRIRMRPPRLPRPRPRPPPVPRP	1.65
RRIRNRPPRLPRPRPRPRFIPRP	-0.533
RRIRERPPRLPRPRPRPLSVPRP	-0.642
RRIRNRPPRLPRPRPRPRHMPRP	-0.199
RRIRVRPPRLPRPRPRPYYHPRP	-0.877
RRIRGRPPRLPRPRPRPFIQPRP	-0.382
RRIRVRPPRLPRPRPRPYFYPRP	-0.474
RRIRSRPPRLPRPRPRPNRYPRP	-0.296
RRIRWRPPRLPRPRPRPKDAPRP	0.362
RRIRYRPPRLPRPRPRPRVCPRP	0.0157
RRIRFRPPRLPRPRPRPTIWPRP	-0.000248
RRIRDRPPRLPRPRPRPCGDPRP	0.0915
RRIRPRPPRLPRPRPRPKSWPRP	0.258
RRIRVRPPRLPRPRPRPTCTPRP	-0.00861
RRIRWRPPRLPRPRPRPRSTPRP	0.551
RRIRQRPPRLPRPRPRPIICPRP	0.0208
RRIRSRPPRLPRPRPRPTGLPRP	0.127
RRIRTRPPRLPRPRPRPWGLPRP	0.00838
RRIRYRPPRLPRPRPRPTMKPRP	-0.285
RRIRTRPPRLPRPRPRPHVRPRP	-0.00804
RRIRDRPPRLPRPRPRPCYYPRP	-0.0165

Sequence	shrunken log2 fold change
RRIRHRPPRLPRPRPRPFCCPRP	-0.0718
RRIRYRPPRLPRPRPRPNYRPRP	-0.306
RRIRRRPPRLPRPRPRPHLYPRP	0.176
RRIRLRPPRLPRPRPRPNTPPRP	-0.187
RRIRARPPRLPRPRPRPNTAPRP	0.181
RRIRVRPPRLPRPRPRPKSVPRP	-0.00455
RRIRCRPPRLPRPRPRPFVCPRP	-0.242
RRIRGRPPRLPRPRPRPLWIPRP	0.163
RRIRTRPPRLPRPRPRPNMWPRP	-0.365
RRIRSRPPRLPRPRPRPFSPPRP	-0.195
RRIRIRPPRLPRPRPRPTWNPRP	0.409
RRIRWRPPRLPRPRPRPFEAPRP	0.253
RRIRKRPPRLPRPRPRPVTDPRP	-0.0127
RRIRRRPPRLPRPRPRPLHCPRP	0.0886
RRIRDRPPRLPRPRPRPACPPRP	0.962
RRIRDRPPRLPRPRPRPTFCPRP	0.164
RRIRDRPPRLPRPRPRPVMSPRP	-0.257
RRIRVRPPRLPRPRPRPYRQPRP	-0.479
RRIRERPPRLPRPRPRPQNEPRP	-0.581
RRIRARPPRLPRPRPRPQPNPRP	0.396
RRIRCRPPRLPRPRPRPQHNPRP	-0.771
RRIRARPPRLPRPRPRPNKRPRP	0.214
RRIRFRPPRLPRPRPRPPCRPRP	0.172

Sequence	shrunken log2 fold change
RRIRLRPPRLPRPRPRPCIPPRP	-0.194
RRIRTRPPRLPRPRPRPQEDPRP	-0.01
RRIRMRPPRLPRPRPRPSIQPRP	0.0104
RRIRPRPPRLPRPRPRPYKYPRP	-1.13
RRIRARPPRLPRPRPRPDSQPRP	0.0999
RRIRKRPPRLPRPRPRPRERPRP	0.358
RRIRFRPPRLPRPRPRPCGQPRP	0.151
RRIRVRPPRLPRPRPRPRCSPRP	-0.212
RRIRGRPPRLPRPRPRPLETPRP	0.985
RRIRNRPPRLPRPRPRPIAYPRP	-0.0604
RRIRARPPRLPRPRPRPKYNPRP	-0.411
RRIRMRPPRLPRPRPRPLHWPRP	0.116
RRIRQRPPRLPRPRPRPMWRPRP	0.279
RRIRARPPRLPRPRPRPFPIPRP	0.264
RRIRDRPPRLPRPRPRPMKQPRP	-0.076
RRIRGRPPRLPRPRPRPSHKPRP	-0.157
RRIRFRPPRLPRPRPRPNRVPRP	-0.0261
RRIRVRPPRLPRPRPRPKSNPRP	-0.206
RRIRQRPPRLPRPRPRPSQQPRP	0.0129
RRIRGRPPRLPRPRPRPKHGPRP	0.699
RRIRLRPPRLPRPRPRPFQPPRP	0.113
RRIRTRPPRLPRPRPRPFDCPRP	-0.748
